According to patent US11859229B2, “Polyvinyl alcohol-degrading enzyme and process for producing the same” (Hayashibara Co., Ltd., priority 2017, dated 2024):

What was measured:
[1] = Thermal stability and pH stability (residual PVA-oxidizing activity); type: biochemical; conditions: 10 mM phosphate buffer, pH 7.0, 60 min
Experimental: To 0.5 mL of a substrate solution prepared by dissolving PVA (Reagent grade polyvinyl alcohol, polymerization degree: 2,000, Nacalai Tesque Inc., Kyoto, Japan) into 100 mM sodium phosphate buffer (pH 7.0) to give a concentration of 2% (w/v), 15 µL of 2% (w/v) of sodium azide solution was added, and then 0.5 mL of an enzyme solution is further added and reacted with shaking at 27° C. for 60 min. After the 60 min-reaction, the reaction was stopped by mixing 0.32 mL of the reaction mixture to 0.8 mL of a titanium reagent, and the yellow color, produced by reacting hydrogen peroxide formed by the enzyme reaction and the titanium reagent, was measured by measuring the absorbance at 410 nm (A410) as an index. Separately, the enzyme solution was added to the substrate solution, and the resulting mixture is immediately mixed with the titanium reagent. The resulting mixture was similarly measured its color and the value was used as the value at the reaction zero minutes. Then, the amount of the formed hydrogen peroxide is determined and the PVA-oxidizing activity is calculated based on the following formula. It is known that the absorbance at 410 nm (A410) increases by “1” when 3.65 […]mole/mL of hydrogen peroxide is formed. […]
In the two purified preparations of the PVA-degrading enzyme, PVA-A was used for investigating thermal stability and pH stability using PVA-oxidizing activity as an index according to the assay method. Thermal stability was determined by the steps of incubating the enzyme solution (in 10 mM phosphate buffer, pH 7.0) at various temperature for 60 min, cooling in water, and then measuring the residual enzyme activity. pH Stability was determined by the steps of incubating the enzyme solution in 100 mM buffer with different pH at 4° C. for 24 hours, adjusting pH to 7.0, and then measuring the residual enzyme activity. […] In FIG. 6, symbols, “●”, “▪”, “▴” and “♦”, mean values measured by using acetate buffer, phosphate buffer, glycine-NaOH buffer, and potassium chloride-NaOH buffer, respectively, for pH control.

[2] = Degradation of PVA by PVA-degrading enzyme: time course of viscosity of reaction mixture; type: biochemical; conditions: for Viscosity of reaction mixture: 35° C.
Experimental: Using the purified enzyme preparation of PVA-A obtained by the method of Experiment 2, the enzyme preparations varying the amount of enzyme were allowed to act on substrate solutions varying in PVA concentration, and the time course of the degradation of PVA was investigated by measuring the reduction of viscosity of the reaction mixture.
PVA as a substrate (Reagent grade polyvinyl alcohol, polymerization degree: 2,000, commercialized by Nacalai Tesque Inc., Kyoto, Japan), 50 mM sodium phosphate buffer (pH 7.0), and the purified enzyme solution of PVA-A dissolved in the same buffer were mixed, and the reaction mixtures (volume: 1 mL) with the final concentration of PVA of 1%, 4% or 10% (w/v), and the amount of PVA-A per 1 g-PVA of 1 (or 1.25), 5 or 10 units as PVA-oxidizing activity was prepared. Then, those reaction mixtures in plastic tubes were reacted with shaking at 160 rpm at 35° C. for 1, 4 or 20 hours. In each PVA concentration, a reaction mixture prepared by substituting the enzyme solution to 50 mM phosphate buffer (pH 7.0) was used as control (the amount of enzyme: zero unit). To viscosity measurement using “DV-II+Pro”, a cone-plate viscometer manufactured by Brookfield, Boston, USA, 0.6 mL of a reaction mixture obtained by reacting under each condition was subjected.

B1: PVA-A: purified PVA-degrading hybrid enzyme from Pseudomonas sp. VT1B strain, amino acid sequence of SEQ ID NO: 2 (protein, listed as Pseudomonas sp.)
chain: AENWPMFGKNYENTRATSDTQISTANISTLNVVRRTTDGGITGTPTVVDGVAYYSDFSGYVKAVRVSDGVVLWRVRPQTTMLSPSPFVTADTVYVAGNNSYVYALNRANGAVRWTTQIETSPNSRISSSPIVVGNILIIGTGSYQVFLPATPMFRGRVAFLNATTGAILPYSTNMCPSASCGGGISVWSTAAIDESTRTGYIGTGQAYRDPAGPYSDALVAFNIDTGAIRWARQFLANDVYQLGGTLRYDYDVGAAPNLFVANGQRMVGVGGKDGTYRAFNRDTGAPIWNTPVGRGSAIGGVMQSTAYGDGRIYVTSNTSTIGSGRNDPVPATAEASALDAATGAPVWIRQLDAGGFGGVAYANGLMYASTWDGRLRVFNAANGNIVREVQVSPSRGAYVPAPTDGFPNGSAGGPVVYGNRVLMGYGWTWVLNINGGLTTMEATVGGGASQTVTLASSSDTYVQSGTPTTNYAYDVNLLARLADAEGLTRASFLQFPLTAVPAGTITSARLRLYGRHDAPTGTGQSVSVWPGTKTTTWSGPNVTYNNSSTETGVDFYATSSIATATVGITPQYYEWNVTDYVASRRSLGHATFGVAVNSAHQYRVTLNSADNTANRPELVVTVSGGTGSQLPGSCPSGFTARAGVNQGFMHNGVARGFVLNVPANVSTPRPVFVSLTGSVESTNENLGARGGAGALNNDGFLVIGPVRRCAGQDPNGAGTSVNGGTCNQAGTGGWNWNPWNEGRVFAAAGDPWKTAEGPDSQFLEAVVRCVAASYPVDSTRMYLGGISSGATMTHRALLFNSDFWAGGLPLSGEWYVSQDNGTAYPGADEFAARRQAVINNPTKIFQGRVGPLPLPATQSPMIVISMWGGANDIWYCGSTLCADYRPSTQAASNYFSALPNVVHVACSSSHGHQWPTQNRAAFNTWAATTLASHPKGTPASSFVLPPPPAGYSCRVGRYTDHYSGT
[1]
  Thermal stability of PVA-oxidizing activity: up to 45 °C
[2]; PVA 1% (w/v), 1.25 U/g-PVA, 0 hour
  Viscosity of reaction mixture: 2.7 mPa·s
[2]; PVA 1% (w/v), 1.25 U/g-PVA, 1 hour
  Viscosity of reaction mixture: 2.3 mPa·s
[2]; PVA 1% (w/v), 1.25 U/g-PVA, 4 hours
  Viscosity of reaction mixture: 1.7 mPa·s
[2]; PVA 1% (w/v), 1.25 U/g-PVA, 20 hours
  Viscosity of reaction mixture: 1.4 mPa·s
[2]; PVA 1% (w/v), 5 U/g-PVA, 0 hour
  Viscosity of reaction mixture: 2.5 mPa·s
[2]; PVA 1% (w/v), 5 U/g-PVA, 1 hour
  Viscosity of reaction mixture: 1.6 mPa·s
[2]; PVA 1% (w/v), 5 U/g-PVA, 4 hours
  Viscosity of reaction mixture: 1.3 mPa·s
[2]; PVA 1% (w/v), 5 U/g-PVA, 20 hours
  Viscosity of reaction mixture: 1.2 mPa·s
[2]; PVA 1% (w/v), 10 U/g-PVA, 0 hour
  Viscosity of reaction mixture: 2.7 mPa·s
[2]; PVA 1% (w/v), 10 U/g-PVA, 1 hour
  Viscosity of reaction mixture: 1.4 mPa·s
[2]; PVA 1% (w/v), 10 U/g-PVA, 4 hours
  Viscosity of reaction mixture: 1.3 mPa·s
[2]; PVA 1% (w/v), 10 U/g-PVA, 20 hours
  Viscosity of reaction mixture: 1.2 mPa·s
[2]; PVA 4% (w/v), 1 U/g-PVA, 0 hour
  Viscosity of reaction mixture: 34.0 mPa·s
[2]; PVA 4% (w/v), 1 U/g-PVA, 1 hour
  Viscosity of reaction mixture: 35.6 mPa·s
[2]; PVA 4% (w/v), 1 U/g-PVA, 4 hours
  Viscosity of reaction mixture: 18.6 mPa·s
[2]; PVA 4% (w/v), 1 U/g-PVA, 20 hours
  Viscosity of reaction mixture: 6.6 mPa·s
[2]; PVA 4% (w/v), 5 U/g-PVA, 1 hour
  Viscosity of reaction mixture: 30.3 mPa·s
[2]; PVA 4% (w/v), 5 U/g-PVA, 4 hours
  Viscosity of reaction mixture: 11.9 mPa·s
[2]; PVA 4% (w/v), 5 U/g-PVA, 20 hours
  Viscosity of reaction mixture: 3.7 mPa·s
[2]; PVA 4% (w/v), 5 units, 20 hours
  viscosity after reaction relative to the start of the reaction: about 1/10
[2]; PVA 10% (w/v), 1 U/g-PVA, 0 hour
  Viscosity of reaction mixture: 2530 mPa·s
[2]; PVA 10% (w/v), 1 U/g-PVA, 1 hour
  Viscosity of reaction mixture: 1490 mPa·s
[2]; PVA 10% (w/v), 1 U/g-PVA, 4 hours
  Viscosity of reaction mixture: 1550 mPa·s
[2]; PVA 10% (w/v), 1 U/g-PVA, 20 hours
  Viscosity of reaction mixture: 873 mPa·s
[2]; PVA 10% (w/v), 5 U/g-PVA, 1 hour
  Viscosity of reaction mixture: 1520 mPa·s
[2]; PVA 10% (w/v), 5 U/g-PVA, 4 hours
  Viscosity of reaction mixture: 769 mPa·s
[2]; PVA 10% (w/v), 5 U/g-PVA, 20 hours
  Viscosity of reaction mixture: 231 mPa·s
[2]; PVA 10% (w/v), 5 units per 1 g of PVA, 20 hours
  viscosity after reaction relative to the start of the reaction: about 1/10
